Results: patent US20050118651A1 (NEURALAB, published 2005)

Biological target: T1, synthetic Aβ1-42 peptide (aggregated in the ELISAs) (human, UniProt P05067 672-713)
T1 construct: range 672-713; It was coated as aggregated peptide in the ELISAs; also called aggregated Aβ1-42; Aβ (1-42) aggregate
Test: competitive Aβ 1-42 ELISA; competitor biotinylated m12A11Cγ2a at a fixed concentration

fold of IC50 against murine and chimeric 12A11: ≤ 2 fold (x IC50)
B1: humanized 12A11 version 1 (antibody, V domains shown)
VH: QVQLVESGGGVVQPGRSLRLSCAFSGFSLSTSGMSVGWIRQAPGKGLEWLAHIWWDDDKYYNPSLKSRLTISKDTSKNTVYLQMNSLRAEDTAVYYCARRTTTADYFAYWGQGTTVTVSS
VL: DVVMTQSPLSLPVTPGEPASISCRSSQSIVHSNGNTYLEWYLQKPGQSPQLLIYKVSNRFSGVPDRFSGSGSGTDFTLKISRVEAEDVGVYYCFQSSHVPLTFGQGTKLEIK
notes: Made by transient expression in COS cells; also called h12A11v1; 12A11v1
